Tests used:
BSA-MS4A6A-ECL2 peptide = molecular target: T1, BSA-MS4A6A-ECL2 peptide (human, BSA-conjugated); assay: peptide ELISA, hybridoma supernatant
T1 construct: Synthetic peptide derived from ECL2, conjugated to BSA, coated on the ELISA plate; also called MS4A6A-ECL2 BSA conjugated peptide; BSA-MS4A6A-ELC2 peptide
T1 peptide: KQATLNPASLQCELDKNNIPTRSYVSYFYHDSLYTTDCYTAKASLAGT
Experimental: Anti-MS4A6A hybridoma supernatants were tested for binding to MS4A6A peptides derived from ECL1 (amino acid residues 68-85 of human MS4A6A of SEQ ID NO:1) and ECL2 (amino acid residues 138-185 of human MS4A6A of SEQ ID NO:1) sequences, using an enzyme-linked immunosorbent assay (ELISA). Briefly, 96-well polystyrene plates were coated with 1-10 μg/mL of synthetic free or BSA-conjugated peptides in coating buffer (0.05M carbonate buffer, pH9.6, Millipore Sigma C3041) overnight at 4° C. Coated plates were then blocked with ELISA diluent (PBS+0.5% BSA+0.05% Tween20) for 1-hour, washed 3×300 μL in PBST (PBS+0.05% Tween20, Thermo 28352), and then the antibodies were added at various dilutions (100-1000×) in ELISA diluent. After 30 mins incubation (room temperature, with shaking), the plates were washed 3×300 μl in PBST. A secondary anti-mouse HRP antibody (Jackson Immunoresearch CAT #115-035-003) was added at a 1:1000 dilution in ELISA diluent (50 μL/well) and incubated for 30 minutes at room temperature with shaking. After a final set of washes (3×300 μl in PBST), 50 μL of TMB substrate (BioFx TMBW-1000-01) was added and the reaction was then quenched after 5-10 mins with 50 μL of stop solution (BioFx BSTP-1000-01). The quenched reaction wells were detected for absorbance at […] with a BioTek Synergy Microplate Reader using GENS 2.04 software.

MS4A6A ECL1 peptide = molecular target: T2, MS4A6A ECL1 peptide (human); assay: array SPR (Carterra MX-96), antibody captured, peptide injected
T2 construct: the description elsewhere gives ECL1 as 68-84; Human and cyno ECL1 are said to be identical
T2 peptide: SASFSPNFTQVTSTLLNS
Experimental: (§1) Binding kinetic characterization of the purified antibodies to MS4A6A ECL1 and ECL2 peptides was performed by Carterra (South San Francisco, Calif.) using a proprietary array Surface Plasmon Resonance (SPR) instrument (MX-96) as follows. Antibodies were printed onto a CMD5OOD chip (Xantec #SPMX CMD500D lot #SC CMD500D0117.a Exp. 31.12.18) using the Continuous Flow Microspotter (CFM). First, the chip was activated with 100 mM MES pH 5.5, 100 μL EDC (133 mM final), 100 μL of S-NHS (33.3 mM final), for 7 minutes. A lawn of anti-mouse IgG-Fc (Jackson ImmunoResearch CAT #115-005-071 lot#130410) was injected for 15 minutes to establish a surface density of 10000-12000 RU, after which the chip surface was deactivated with 1 M ethanolamine at pH 8.5 for 10 minutes. Anti-MS4A6A antibodies in question, in the form of hybridoma supernatants diluted 2:1 with HBS-EP+buffer (Teknova CAT #H8022), were then printed as duplicates with a 20 minute and a 5 minutes print from the same sample solution. Control antibodies were diluted to 20 μ/ml for printing.
(§2) To perform kinetic analysis, the peptides in question were prepared in HBS-EP+buffer with lmg/ml BSA at final assay concentrations of 2000 nM, 400 nM, 80 nM, 16 nmM, and 3.2 nM. These were then injected on the chip for five minutes, followed by a seven-minute dissociation period at 8 uL per second in a non-regenerative kinetic series. Duplicate measurements for each anti-MS4A6A antibody were taken to ensure reproducibility.
(§3) Kₐ (association rate constant; Kₒₙ), Kd (dissociation rate constant; Koff) and KD (equilibrium constant) to MS4A6A ECL-2 peptides were calculated for each of the 23 anti-MS4A6A antibodies tested, the results of which are shown below in Table 5 (clones that bound too weakly to determine these values are denoted as N/A in Table 5).

MS4A6A ECL2 peptide = molecular target: T3, MS4A6A ECL2 peptide (human); assay: array SPR (Carterra MX-96), antibody captured, peptide injected; both duplicates N/A
T3 construct: also called MS4A6A ECL-2 peptides
T3 peptide: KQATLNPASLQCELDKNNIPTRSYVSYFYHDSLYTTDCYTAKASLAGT
Experimental: as §1, §2, §3

cynomolgus (cyno) MS4A6A [1] = molecular target: T4, cynomolgus (cyno) MS4A6A (cynomolgus, UniProt Q9H2W1 1-246 (human entry)); assay: flow cytometry, hybridoma supernatant, HEK293 transfected with cyno MS4A6A over parental HEK293; Screen 1
T4 construct: Full-length protein expressed in transfected HEK293, U937 or K562 cells (flow cytometry)
T4 chain: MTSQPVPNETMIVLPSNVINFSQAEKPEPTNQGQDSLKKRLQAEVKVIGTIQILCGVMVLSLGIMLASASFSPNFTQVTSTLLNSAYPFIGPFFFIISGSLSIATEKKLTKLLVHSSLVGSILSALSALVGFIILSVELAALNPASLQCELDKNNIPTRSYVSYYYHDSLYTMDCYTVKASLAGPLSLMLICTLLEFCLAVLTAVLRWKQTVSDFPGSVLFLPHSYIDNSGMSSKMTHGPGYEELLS
Experimental: (§4) Positive clones were expanded and then rescreened for specificity against HEK293 cells overexpressing cyno MS4A6A and parental HEK293 cells. Briefly, previously prepared, cryopreserved transiently-transfected cells were labeled with LIVE/DEAD Fixable Aqua Dead Cell Stain Kit (ThermoFisher Scientific L34957) on ice for 30 minutes. After a wash with PBS, 2×10⁵ cells were aliquoted per well in 96-well round bottom plates and incubated with 50 μl of culture supernatant on ice for 30 mins. […] Following this secondary incubation, the cells were again washed twice with ice-cold FACS buffer and resuspended in a final volume of 200 μl of FACS buffer. Analysis was performed on a FACS Canto system (BD Biosciences), with sort gates drawn to exclude dead (Aqua-positive) cells. […] The screen was repeated twice, and the numbers reported here represent the ratio of mean fluorescence level in transfected cells over parental cells.

cynomolgus (cyno) MS4A6A [2] = molecular target: T4, cynomolgus (cyno) MS4A6A; assay: flow cytometry, hybridoma supernatant, HEK293 transfected with cyno MS4A6A over parental HEK293; Screen 2
Experimental: as §4

binding result (BSA-MS4A6A-ECL2 peptide): no binding
binding result (MS4A6A ECL1 peptide): no binding (tested: 2000 nM)
binding result (MS4A6A ECL2 peptide): no binding (tested: 2000 nM)
ratio of APC MFI on MS4A6A+/HEK parental cells (cynomolgus (cyno) MS4A6A [1]): 7.5 ratio
ratio of APC MFI on MS4A6A+/HEK parental cells (cynomolgus (cyno) MS4A6A [2]): 7.6 ratio
B1: 6A-1 (antibody, V domains shown)
VH: EVQLQQSGPELVKPGASVKISCKASGYSFTGYYMHWVKQSPEDSLEWIGAINPSTGGSTYSQKFKDKATLTVDKSSSTAYMQLKSLTSEESAVYYCTRFDGYGYWGQGTLVTVSA
VL: DIVMTQAAFSNPVTLGTSASISCRSSKSLLHSNGITYLYWYLQKPGQSLQLLIYQMSNLASGVPDRFSGSGSGTDFTLRISRVEAEDVGVYYCAQNLELPWTFGGGTKLEIK
notes: Mouse hybridoma antibody, tested as hybridoma supernatant (mouse IgG, detected or captured via anti-mouse IgG Fc); also called anti-MS4A6A antibody 6A-1

Source: US20220380455A1 (Alector, published 2022)
